Biological target: T1, human vascular endothelial growth factor receptor-2 Fc chimera (KDR-Fc) (human, UniProt P35968 20-764)
T1 construct: range 1-764; purchased from R&D Systems; also called hKDR; human VEGF-R2-Fc; not shown: human IgG1 Fc
Assay: radioactive equilibrium binding, 1 nM KDR-Fc
Method in brief: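 ³⁵S-Met-labeled binder protein, made by reticulocyte-lysate translation and Flag-purified, held at 0.2 or 0.5 nM with receptor-Fc (0–200 nM) for 1 h at 30° C in buffer B. Complexes captured on Protein A beads, washed, KOH-eluted. Bound signal given as % of input radioactivity minus bead-only background; one-site fit.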

T1 sequence (P35968 20-764 limits assumed, change not shown, form in doubt): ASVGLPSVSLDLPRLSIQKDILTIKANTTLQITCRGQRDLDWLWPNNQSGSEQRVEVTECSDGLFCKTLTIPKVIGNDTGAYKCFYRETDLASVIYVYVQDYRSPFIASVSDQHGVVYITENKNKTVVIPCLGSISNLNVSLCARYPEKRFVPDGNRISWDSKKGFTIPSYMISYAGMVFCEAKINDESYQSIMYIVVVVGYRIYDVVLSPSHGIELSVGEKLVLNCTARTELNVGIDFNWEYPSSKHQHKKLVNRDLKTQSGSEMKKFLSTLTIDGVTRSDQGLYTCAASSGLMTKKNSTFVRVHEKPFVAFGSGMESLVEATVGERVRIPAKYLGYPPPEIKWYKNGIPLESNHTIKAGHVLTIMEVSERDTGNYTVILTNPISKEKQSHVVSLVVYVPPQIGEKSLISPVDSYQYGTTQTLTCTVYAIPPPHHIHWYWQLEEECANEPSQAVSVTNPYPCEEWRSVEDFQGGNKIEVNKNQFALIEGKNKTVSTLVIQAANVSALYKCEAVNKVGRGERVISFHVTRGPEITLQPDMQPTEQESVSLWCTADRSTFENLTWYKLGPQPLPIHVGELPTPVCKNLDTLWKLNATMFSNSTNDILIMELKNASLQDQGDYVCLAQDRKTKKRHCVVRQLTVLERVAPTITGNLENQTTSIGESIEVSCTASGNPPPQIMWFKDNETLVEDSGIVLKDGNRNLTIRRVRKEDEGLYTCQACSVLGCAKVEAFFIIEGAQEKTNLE

B1: 1′DelC4 PR4 (designed binder)
chain: EVVAATPTSLLISWRHPHFPTRYYRITYGETGGNSPVQEFTVPLQPPTATISGLKPGVDYTITGYAVTVAQSNHELMTPISINYRT
notes: tag left out
Binding to 1 nM KDR, %: 9%

B2: 1′DelC5 PR4 (designed binder)
chain: EVVAATPTSLLISWRHPHFPTRYYRITYGETGGNSPVQEFTVPLQPPTATISGLKPGVDYTITGYAVTLAQNDHEIMTPISINYRT
notes: tag left out
Binding to 1 nM KDR, %: 11%

B3: 1′DelC6 PR4 (designed binder)
chain: EVVAATPTSLLISWRHPHFPTRYYRITYGETGGNSPVQEFTVPLQPPTATISGLKPGVDYTITGYAVTVAQNEHELLTPISINYRT
notes: tag left out
Binding to 1 nM KDR, %: 12%

B4: 1′DelC10 PR4 (designed binder)
chain: EVVAATPTSLLISWRHPHFPTRYYRITYGETGGNSPVQEFTVPLQPPTATISGLKPGVDYTITGYAVTVAKNDHELITPISINYRT
notes: tag left out
Binding to 1 nM KDR, %: 8%

B5: 1′DelD3 PR4 (designed binder)
chain: EVVAATPTSLLISWRHPHFPTRYYRITYGETGGNSPVQEFTVPLQPPTATISGLKPGVDYTITGYAVTLAQNNHELITPISINYRT
notes: tag left out
Binding to 1 nM KDR, %: 12%

B6: 1′DelE11 PR4 (designed binder)
chain: EVVAATPTSLLISWRHPHFPTRYYRITYGETGGNSPVQEFTVPLQPPTATISGLKPGVDYTITGYAVTVAQNDRELITPISINYRT
notes: tag left out
Binding to 1 nM KDR, %: 9%

B7: 1′DelE12 PR4 (designed binder)
chain: EVVAATPTSLLISWRHPHFPTRYYRITYGETGGNSPVQEFTVPLQPPTATISGLKPGVDYTITGYAVTVAQSDHELFTPISINYRT
notes: tag left out
Binding to 1 nM KDR, %: 13%

B8: 1′DelG9 PR4 (designed binder)
chain: EVVAATPTSLLISWRHPHFPTRYYRITYGETGGNSPVQEFTVPLQPPTATISGLKPGVDYTITGYAVTVAQSDHELMTPISINYRT
notes: tag left out
Binding to 1 nM KDR, %: 10%

B9: 1′DelG11 PR4 (designed binder)
chain: EVVAATPTSLLISWRHPHFPTRYYRITYGETGGNSPVQEFTVPLQPPTATISGLKPGVDYTITGYAVTLAQNGHVLITPISINYRT
notes: tag left out
Binding to 1 nM KDR, %: 11%

B10: 1′DelH1 PR4 (designed binder)
chain: EVVAATPTSLLISWRHPHFPTRYYRITYGETGGNSPVQEFTVPLQPPTATISGLKPGVDYTITGYAVTVAQNGHELITPISINYRT
notes: tag left out
Binding to 1 nM KDR, %: 9%

B11: 1′DelH6 PR4 (designed binder)
chain: EVVAATPTSLLISWRHPHFPTRYYRITYGETGGNSPVQEFTVPLQPPTATISGLKPGVDYTITGYAVTVGQYDHELITPISINYRT
notes: tag left out
Binding to 1 nM KDR, %: 6%

B12: 1′DelH7 PR4 (designed binder)
chain: EVVAATPTSLLISWRHPHFPTRYYRITYGETGGNSPVQEFTVPLQPPTATISGLKPGVDYTITGYAVTVGQNDQELLTPISINYRT
notes: tag left out
Binding to 1 nM KDR, %: 11%

B13: 1′DelH9 PR4 (designed binder)
chain: EVVAATPTSLLISWRHPHFPTRYYRITYGETGGNSPVQEFTVPLQPPTATISGLKPGVDYTITGYAVTVGQNDHELITPISINYRT
notes: tag left out
Binding to 1 nM KDR, %: 10%

B14: 2′Del E12 PR4 (designed binder)
chain: EVVAATPTSLLISWRHPHFPTRYYRITYGETGGNSPVQEFTVPLQPPTATISGLKPGVDYTITGYAVTEGPNGHELITPISINYRT
notes: tag left out
Binding to 1 nM KDR, %: 13%

B15: 2′Del F12 PR4 (designed binder)
chain: EVVAATPTSLLISWRHPHFPTRYYRITYGETGGNSPVQEFTVPLQPPTATISGLKPGVDYTITGYAVTLTQHDHELLTPISINYRT
notes: tag left out
Binding to 1 nM KDR, %: 7%

B16: 2′DelB9 PR4 (designed binder)
chain: EVVAATPTSLLISWRHPHFPTRYYRITYGETGGNSPVQEFTVPLQPPTATISGLKPGVDYTITGYAVTVGPTDHELLTPISINYRT
notes: tag left out
Binding to 1 nM KDR, %: 11%

B17: 2′DelB10 PR4 (designed binder)
chain: EVVAATPTSLLISWRHPHFPTRYYRITYGETGGNSPVQEFTVPLQPPTATISGLKPGVDYTITGYAVTVTHNDHELLTPISINYRT
notes: tag left out
Binding to 1 nM KDR, %: 11%

B18: 2′DelB11 PR4 (designed binder)
chain: EVVAATPTSLLISWRHPHFPTRYYRITYGETGGNSPVQEFTVPLQPPTATISGLKPGVDYTITGYAVTVGQNDHELMTPISINYRT
notes: tag left out
Binding to 1 nM KDR, %: 11%

B19: 2′DelH2 PR4 (designed binder)
chain: EVVAATPTSLLISWRHPHFPTRYYRITYGETGGNSPVQEFTVPLQPPTATISGLKPGVDYTITGYAVTVSQYGHELITPISINYRT
notes: tag left out
Binding to 1 nM KDR, %: 8%

B20: 3A8 PR3 (designed binder)
chain: EVVAATPTSLLISWRHPHFPTRYYRITYGETGGNSPVQEFTVPLQPPTATISGLKPGVDYTITGYAVTEAHHGHELMIPISINYRT
notes: tag left out
Binding to 1 nM KDR, %: 12%

B21: 3C5 PR3 (designed binder)
chain: EVVAATPTSLLISWRHPHFPTRYYRITYGETGGNSPVQEFTVPLQPPTATISGLKPGVDYTITGYAVTGDHNDRELMTPISINYRT
notes: tag left out
Binding to 1 nM KDR, %: 12%

B22: 3D4 PR3 (designed binder)
chain: EVVAATPTSLLISWRHPHFPTRYYRITYGETGGNSPVQEFTVPLQPPTATISGLKPGVDYTITGYAVTVGWNDHELITPISINYRT
notes: tag left out
Binding to 1 nM KDR, %: 10%

B23: 3D11 PR3 (designed binder)
chain: EVVAATPTSLLISWRHPHFPTRYYRITYGETGGNSPVQEFTVPLQPPTATISGLKPGVDYTITGYAVTLGQENQELITPISINYRT
notes: tag left out
Binding to 1 nM KDR, %: 10%

B24: 3E6 PR3 (designed binder)
chain: EVVAATPTSLLISWRHPHFPTRYYRITYGETGGNSPVQEFTVPLQPPTATISGLKPGVDYTITGYAVTVPQNGHELITMISINYRT
notes: tag left out
Binding to 1 nM KDR, %: 12%

B25: 3F1 PR3 (designed binder)
chain: EVVAATPTSLLISWRHPHFPTRYYRITYGETGGNSPVQEFTVPLQPPTATISGLKPGVDYTITGYAVTLTHNEQYLFTPISINYRT
notes: tag left out
Binding to 1 nM KDR, %: 9%

B26: 3F4 PR3 (designed binder)
chain: EVVAATPTSLLISWRHPHFPTRYYRITYGETGGNSPVQEFTVPLQPPTATISGLKPGVDYTITGYAVTMGYEDHELITPISINYRT
notes: tag left out
Binding to 1 nM KDR, %: 10%

B27: 3F5 PR3 (designed binder)
chain: EVVAATPTSLLISWRHPHFPTRYYRITYGETGGNSPVQEFTVPLQPPTATISGLKPGVDYTITGYAVTVAYNEHELYTPISINYRT
notes: tag left out
Binding to 1 nM KDR, %: 11%

B28: 3F11 PR3 (designed binder)
chain: EVVAATPTSLLISWRHPHFPTRYYRITYGETGGNSPVQEFTVPLQPPTATISGLKPGVDYTITGYAVTVGLTDHVLLTPISINYRT
notes: tag left out
Binding to 1 nM KDR, %: 10%

B29: 3G1 PR3 (designed binder)
chain: EVVAATPTSLLISWRHPHFPTRYYRITYGETGGNSPVQEFTVPLQPPTATISGLKPGVDYTITGYAVTMAQNVRELLTPISINYRT
notes: tag left out
Binding to 1 nM KDR, %: 13%

B30: 3G5 PR3 (designed binder)
chain: EVVAATPTSLLISWRHPHFPTRYYRITYGETGGNSPVQEFTVPLQPPTATISGLKPGVDYTITGYAVTLGENDRKLITPISINYRT
notes: tag left out
Binding to 1 nM KDR, %: 13%

B31: 3G10 PR3 (designed binder)
chain: EVVAATPTSLLISWRHPHFPTRYYRITYGETGGNSPVQEFTVPLQPPTATISGLKPGVDYTITGYAVTVVHNGHEILTPISINYRT
notes: tag left out
Binding to 1 nM KDR, %: 10%

B32: 3H9 PR3 (designed binder)
chain: EVVAATPTSLLISWRHPHFPTRYYRITYGETGGNSPVQEFTVPLQPPTATISGLKPGVDYTITGYAVTVSQQNHELLTPISINYRT
notes: tag left out
Binding to 1 nM KDR, %: 11%

B33: 3′A3 PR4 (designed binder)
chain: EVVAATPTSLLISWRHPHFPTRYYRITYGETGGNSPVQEFTVPLQPPTATISGLKPGVDYTITGYAVTRAQNDHELITPISINYRT
notes: tag left out
Binding to 1 nM KDR, %: 9%

B34: 3′D4 PR4 (designed binder)
chain: EVVAATPTSLLISWRHPHFPTRYYRITYGETGGNSPVQEFTVPLQPPTATISGLKPGVDYTITGYAVTLAHNDRELITPISINYRT
notes: tag left out
Binding to 1 nM KDR, %: 12%

B35: 3′D12 PR4 (designed binder)
chain: EVVAATPTSLLISWRHPHFPTRYYRITYGETGGNSPVQEFTVPLQPPTATISGLKPGVDYTITGYAVTGEQNDYELLVPISINYRT
notes: tag left out
Binding to 1 nM KDR, %: 7%

B36: 3′E4 PR4 (designed binder)
chain: EVVAATPTSLLISWRHPHFPTRYYRITYGETGGNSPVQEFTVPLQPPTATISGLKPGVDYTITGYAVTVGPNDRELIVPISINYRT
notes: tag left out
Binding to 1 nM KDR, %: 12%

B37: 3′E6 PR4 (designed binder)
chain: EVVAATPTSLLISWRHPHFPTRYYRITYGETGGNSPVQEFTVPLQPPTATISGLKPGVDYTITGYAVTFGQNGKEFRIPISINYRT
notes: tag left out
Binding to 1 nM KDR, %: 5%

B38: 3′E8 PR4 (designed binder)
chain: EVVAATPTSLLISWRHPHFPTRYYRITYGETGGNSPVQEFTVPLQPPTATISGLKPGVDYTITGYAVTVAQNDRQLFTPISINYRT
notes: tag left out
Binding to 1 nM KDR, %: 12%

B39: 3′F7 PR4 (designed binder)
chain: EVVAATPTSLLISWRHPHFPTRYYRITYGETGGNSPVQEFTVPLQPPTATISGLKPGVDYTITGYAVTEGQNGSELIVPISINYRT
notes: tag left out
Binding to 1 nM KDR, %: 14%

Source: patent publication US20140179896A1 (published 2014)
